Measurements reported in patent publication US20150344570A1 (published 2015).

B1: GpH7-A5/GpH7-B3 variant G236_15Y/GpL16-k0 (antibody, human IgG1, kappa)
heavy 1: not shown
heavy 2: not shown
light: DIVMTQSPLSLPVTPGEPASISCQASESLVHSNRNTYLHWYLQKPGQSPQLLIYKVSNRFSGVPDRFSGSGSGTDFTLKISRVEAEDVGVYYCSQNTHVPPTFGQGTKVEIERTVAAPSVFIFPPSDEQLKSGTASVVCLLNNFYPREAKVQWKVDNALQSGNSQESVTEQDSKDSTYSLSSTLTLSKADYEKHKVYACEVTHQGLSSPVTKSFNRGEC
notes: also called He Ab G236_15Y
B2: GpH7-A5/GpH7-B3 variant K334_04F/GpL16-k0 (antibody, human IgG1, kappa)
heavy 1: not shown
heavy 2: not shown
light: B1 light
notes: also called He Ab K334_04F
B3: GpH7-A5/GpH7-B3 variant I336_10E/GpL16-k0 (antibody, human IgG1, kappa)
heavy 1: not shown
heavy 2: not shown
light: B1 light
notes: also called He Ab I336_10E
B4: GpH7-A5/GpH7-B3 variant K326_01G/GpL16-k0 (antibody, human IgG1, kappa)
heavy 1: not shown
heavy 2: not shown
light: B1 light
notes: also called He Ab K326_01G
B5: GpH7-A5/GpH7-B3 variant H268_18N/GpL16-k0 (antibody, human IgG1, kappa)
heavy 1: not shown
heavy 2: not shown
light: B1 light
notes: also called He Ab H268_18N
B6: GpH7-A5/GpH7-B3 variant G236_07I/GpL16-k0 (antibody, human IgG1, kappa)
heavy 1: not shown
heavy 2: not shown
light: B1 light
notes: also called He Ab G236_07I
B7: GpH7-A5/GpH7-B3 variant S239_08L/GpL16-k0 (antibody, human IgG1, kappa)
heavy 1: not shown
heavy 2: not shown
light: B1 light
notes: also called He Ab S239_08L
B8: GpH7-A5/GpH7-B3 variant V266_08L/GpL16-k0 (antibody, human IgG1, kappa)
heavy 1: not shown
heavy 2: not shown
light: B1 light
notes: also called He Ab V266_08L
B9: GpH7-A5/GpH7-B3 variant S239_10E/GpL16-k0 (antibody, human IgG1, kappa)
heavy 1: not shown
heavy 2: not shown
light: B1 light
notes: also called He Ab S239_10E
B10: GpH7-A5/GpH7-B3 variant L235_04F/GpL16-k0 (antibody, human IgG1, kappa)
heavy 1: not shown
heavy 2: not shown
light: B1 light
notes: also called He Ab L235_04F
B11: GpH7-A5/GpH7-B3 variant I336_08L/GpL16-k0 (antibody, human IgG1, kappa)
heavy 1: not shown
heavy 2: not shown
light: B1 light
notes: also called He Ab I336_08L
B12: GpH7-A5/GpH7-B3 variant A330_16H/GpL16-k0 (antibody, human IgG1, kappa)
heavy 1: not shown
heavy 2: not shown
light: B1 light
notes: also called He Ab A330_16H
B13: GpH7-A5/GpH7-B3 variant Y296_16H/GpL16-k0 (antibody, human IgG1, kappa)
heavy 1: not shown
heavy 2: not shown
light: B1 light
notes: also called He Ab Y296_16H
B14: GpH7-A5/GpH7-B3 variant L234_15Y/GpL16-k0 (antibody, human IgG1, kappa)
heavy 1: not shown
heavy 2: not shown
light: B1 light
notes: also called He Ab L234_15Y
B15: GpH7-A5/GpH7-B3 variant Y296_09D/GpL16-k0 (antibody, human IgG1, kappa)
heavy 1: not shown
heavy 2: not shown
light: B1 light
notes: also called He Ab Y296_09D
B16: GpH7-A5/GpH7-B3 variant K334_16H/GpL16-k0 (antibody, human IgG1, kappa)
heavy 1: not shown
heavy 2: not shown
light: B1 light
notes: also called He Ab K334_16H
B17: GpH7-A5/GpH7-B3 variant I336_03V/GpL16-k0 (antibody, human IgG1, kappa)
heavy 1: not shown
heavy 2: not shown
light: B1 light
notes: also called He Ab I336_03V
B18: GpH7-A5/GpH7-B3 variant I336_18N/GpL16-k0 (antibody, human IgG1, kappa)
heavy 1: not shown
heavy 2: not shown
light: B1 light
notes: also called He Ab I336_18N
B19: GpH7-A5/GpH7-B3 variant K334_19Q/GpL16-k0 (antibody, human IgG1, kappa)
heavy 1: not shown
heavy 2: not shown
light: B1 light
notes: also called He Ab K334_19Q
B20: GpH7-A5/GpH7-B3 variant S337_20W/GpL16-k0 (antibody, human IgG1, kappa)
heavy 1: not shown
heavy 2: not shown
light: B1 light
notes: also called He Ab S337_20W
B21: GpH7-A5/GpH7-B3 variant T335_18N/GpL16-k0 (antibody, human IgG1, kappa)
heavy 1: not shown
heavy 2: not shown
light: B1 light
notes: also called He Ab T335_18N
B22: GpH7-A5/GpH7-B3 variant Y296_04F/GpL16-k0 (antibody, human IgG1, kappa)
heavy 1: not shown
heavy 2: not shown
light: B1 light
notes: also called He Ab Y296_04F
B23: GpH7-A5/GpH7-B3 variant K326_06M/GpL16-k0 (antibody, human IgG1, kappa)
heavy 1: not shown
heavy 2: not shown
light: B1 light
notes: also called He Ab K326_06M
B24: GpH7-A5/GpH7-B3 variant H268_02A/GpL16-k0 (antibody, human IgG1, kappa)
heavy 1: not shown
heavy 2: not shown
light: B1 light
notes: also called He Ab H268_02A
B25: GpH7-A5/GpH7-B3 variant H268_19Q/GpL16-k0 (antibody, human IgG1, kappa)
heavy 1: not shown
heavy 2: not shown
light: B1 light
notes: also called He Ab H268_19Q
B26: GpH7-A5/GpH7-B3 variant L234_04F/GpL16-k0 (antibody, human IgG1, kappa)
heavy 1: not shown
heavy 2: not shown
light: B1 light
notes: also called He Ab L234_04F
B27: GpH7-A5/GpH7-B3 variant S267_10E/GpL16-k0 (antibody, human IgG1, kappa)
heavy 1: not shown
heavy 2: not shown
light: B1 light
notes: also called He Ab S267_10E
B28: GpH7-A5/GpH7-B3 variant L235_20W/GpL16-k0 (antibody, human IgG1, kappa)
heavy 1: not shown
heavy 2: not shown
light: B1 light
notes: also called He Ab L235_20W
B29: GpH7-A5/GpH7-B3 variant L235_15Y/GpL16-k0 (antibody, human IgG1, kappa)
heavy 1: not shown
heavy 2: not shown
light: B1 light
notes: also called He Ab L235_15Y
B30: GpH7-A5/GpH7-B3 variant I336_06M/GpL16-k0 (antibody, human IgG1, kappa)
heavy 1: not shown
heavy 2: not shown
light: B1 light
notes: also called He Ab I336_06M
B31: GpH7-A5/GpH7-B3 variant L234_20W/GpL16-k0 (antibody, human IgG1, kappa)
heavy 1: not shown
heavy 2: not shown
light: B1 light
notes: also called He Ab L234_20W
B32: GpH7-A5/GpH7-B3 variant K334_08L/GpL16-k0 (antibody, human IgG1, kappa)
heavy 1: not shown
heavy 2: not shown
light: B1 light
notes: also called He Ab K334_08L
B33: GpH7-A5/GpH7-B3 variant S267_09D/GpL16-k0 (antibody, human IgG1, kappa)
heavy 1: not shown
heavy 2: not shown
light: B1 light
notes: also called He Ab S267_09D
B34: GpH7-A5/GpH7-B3 variant K326_10E/GpL16-k0 (antibody, human IgG1, kappa)
heavy 1: not shown
heavy 2: not shown
light: B1 light
notes: also called He Ab K326_10E
B35: GpH7-A5/GpH7-B3 variant T335_20W/GpL16-k0 (antibody, human IgG1, kappa)
heavy 1: not shown
heavy 2: not shown
light: B1 light
notes: also called He Ab T335_20W
B36: GpH7-A5/GpH7-B3 variant L328_06M/GpL16-k0 (antibody, human IgG1, kappa)
heavy 1: not shown
heavy 2: not shown
light: B1 light
notes: also called He Ab L328_06M
B37: GpH7-A5/GpH7-B3 variant K326_19Q/GpL16-k0 (antibody, human IgG1, kappa)
heavy 1: not shown
heavy 2: not shown
light: B1 light
notes: also called He Ab K326_19Q
B38: GpH7-A5/GpH7-B3 variant K326_07I/GpL16-k0 (antibody, human IgG1, kappa)
heavy 1: not shown
heavy 2: not shown
light: B1 light
notes: also called He Ab K326_07I
B39: GpH7-A5/GpH7-B3 variant K326_12R/GpL16-k0 (antibody, human IgG1, kappa)
heavy 1: not shown
heavy 2: not shown
light: B1 light
notes: also called He Ab K326_12R
B40: GpH7-A5/GpH7-B3 variant K334_13S/GpL16-k0 (antibody, human IgG1, kappa)
heavy 1: not shown
heavy 2: not shown
light: B1 light
notes: also called He Ab K334_13S
B41: GpH7-A5/GpH7-B3 variant E333_09D/GpL16-k0 (antibody, human IgG1, kappa)
heavy 1: not shown
heavy 2: not shown
light: B1 light
notes: also called He Ab E333_09D
B42: GpH7-A5/GpH7-B3 variant S337_08L/GpL16-k0 (antibody, human IgG1, kappa)
heavy 1: not shown
heavy 2: not shown
light: B1 light
notes: also called He Ab S337_08L
B43: GpH7-A5/GpH7-B3 variant G236_03V/GpL16-k0 (antibody, human IgG1, kappa)
heavy 1: not shown
heavy 2: not shown
light: B1 light
notes: also called He Ab G236_03V
B44: GpH7-A5/GpH7-B3 variant S337_07I/GpL16-k0 (antibody, human IgG1, kappa)
heavy 1: not shown
heavy 2: not shown
light: B1 light
notes: also called He Ab S337_07I

Biological target: FcγRIIa H (human, UniProt P12318 34-217)
Sequence (P12318 34-217): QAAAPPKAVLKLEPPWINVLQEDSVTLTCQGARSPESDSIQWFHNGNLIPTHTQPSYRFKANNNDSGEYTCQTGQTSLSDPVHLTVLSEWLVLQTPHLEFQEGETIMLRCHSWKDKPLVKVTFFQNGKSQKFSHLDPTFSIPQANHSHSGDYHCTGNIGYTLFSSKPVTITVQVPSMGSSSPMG
Experiment: SPR Biacore, captured antibody, FcγR analyte; vs GpH7-A5/GpH7-B3/GpL16-k0 = 100

| Binder | He/Con_2aH |
| --- | --- |
| B1 | 136 % of control |
| B2 | 106 % of control |
| B3 | 102 % of control |
| B4 | 100 % of control |
| B5 | 112 % of control |
| B6 | 115 % of control |
| B7 | 105 % of control |
| B8 | 104 % of control |
| B9 | 112 % of control |
| B10 | 111 % of control |
| B11 | 106 % of control |
| B12 | 101 % of control |
| B13 | 104 % of control |
| B14 | 120 % of control |
| B15 | 104 % of control |
| B16 | 104 % of control |
| B17 | 102 % of control |
| B18 | 103 % of control |
| B19 | 101 % of control |
| B20 | 102 % of control |
| B21 | 103 % of control |
| B22 | 100 % of control |

| Binder | He/Con_2aH |
| --- | --- |
| B23 | 103 % of control |
| B24 | 114 % of control |
| B25 | 102 % of control |
| B26 | 120 % of control |
| B27 | 102 % of control |
| B28 | 118 % of control |
| B29 | 122 % of control |
| B30 | 106 % of control |
| B31 | 114 % of control |
| B32 | 104 % of control |
| B33 | 105 % of control |
| B34 | 102 % of control |
| B35 | 105 % of control |
| B36 | 104 % of control |
| B37 | 101 % of control |
| B38 | 100 % of control |
| B39 | 101 % of control |
| B40 | 102 % of control |
| B41 | 103 % of control |
| B42 | 100 % of control |
| B43 | 119 % of control |
| B44 | 101 % of control |
